Measured values reported in publication PMC13360575.

B1: clone 2.1 Fab CB_05 (clonal burst) (Fab, V domains shown)
VH: EVQLQESGPSLVKPSQTLSLTCSVTGDSITSGYWNWIRKFPGNKLEYMGYISYSGSTYYNPSLKSRISITRDTSKNQYYLQLNSVTTEDTATYYCGRDFDVWGAGTTVTVSS
VL: DIVMTQSQKFMSTSVGDRVSVTCKASQNVGTNVAWYQQKPGQSPKALIYSASYRYSGVPDRFTGSGSGTDFTLTISNVQSEDLAEYFCQQYNSYPLTFGSGTKLEIK
B2: clone 2.1 Fab CB_07 (clonal burst) (Fab, V domains shown)
VH: EVQLQESGPSLVKPSQTLSLTCSVTGDSITSGYWNWIRKFPGNKLEYMGYISYSGSTYYNPSLKSRISITRDTSKNQYYLQLNSVTTEDTATYYCGRDFDVWGAGTTVTVSS
VL: DIVMTQSQKFMSTSVGDRVSVTCKASQNVGTNVAWYQQKPGQSPKALIYSASYRYSGVPDRFTGSGSGTDFTLTISNVQSEDLAEYFCQQYKSYPLTFGSGTKLEIK
B3: clone 2.1 Fab L_11 (affinity ladder) (Fab, V domains shown)
VH: EVQLQESGPSLVKPSQTLSLTCSVTGDSITSGYWNWIRKFPGNKLEYMGYISYSGSTYYNPSLKSRISITRDTSTNQYYLQLNSVTTEDTATYFCARDFDVWGAGTTVTVSS
VL: DIVMTQSQKFMSTSVGDRVSVTCKASQNVGTNVGWYQQKPGQSPKALIYSASYRYSGVPDRFTGSGSGTDFTLTISNVQSEDLAEYFCQQYNSYPLTFGSGTKLEIK
B4: clone 2.1 Fab TA_1 (Fab, V domains shown)
VH: EVQLQESGPSLVKPSQTLSLTCSVTGDSITSGYWNWIRKFPGNRLEYMGYISFSGSTYYNPSLKSRISITRDTSKNQYYLQLNSVTTEDTATYYCARDFDVWGAGTTVTVSS
VL: DIVMTQSQKFMSTSVGDRVSVTCKASQNVGTNVGWYQQKPGQSPKALIYSASYRYSGVPDRFTGSGSGTDFTLTISNVQSEDLAEYFCQQYNSYPLTFGSGTKLEIK
B5: clone 2.1 Fab TA_2 (Fab, V domains shown)
VH: EVQLQESGPSLVKPSQTLSLTCSVTGDSITSGYWNWIRKFPGNKLEYMGYISYSGSTYYNPSLKSRISITRDTSKNQYYLQLNSVTTEDTATYYCARDFDVWGAGTTVTVSS
VL: DIVMTQSQKFMSTSVGDRVSVTCKASQNVGTNVGWYQQKPGQSPKALIYSASYRYSGVPDRFTGSGSGTDFTLTISNVQSEDLAEYFCQQYNSYPLTFGSGTKLEIK
B6: clone 2.1 Fab L_10 (affinity ladder) (Fab, V domains shown)
VH: EVQLQESGPGLVKPSQTLSLTCSVTGDSITSGYWNWIRKFPGNKLEYMGYISYSGSTYYNPSLKSRVSITRDTSKNQHYLQLNSVTTEDTATYYCGRDFDVWGAGTTVTVSS
VL: DIVMTQSQKFMSTSVGDRVSVTCKASQNVGTNVAWYQQKPGQSPKALIYSASYRYSGVPDRFTGSGSGTDFTLTISNVQSEDLAEYFCQQYKSYPLTFGSGTKLEIK
B7: clone 2.1 Fab TA_3 (Fab, V domains shown)
VH: EVQLQESGPSLVKPSQTLSLTCSVTGDSITSGYWNWIRKFPGNKLEYMGYISYSGSTYYNPSLKSRISITRDTSKNQYYLQLNSVTTEDTATYYCARDFDVWGAGTTVTVSS
VL: DIVMTQSQKFMSTSVGDRVSVTCKASQNVGTNVVWYQQKPGQSPKALIYSASYRYSGVPDRFTGSGSGTDFTLTISNVQSEDLAEYFCQQYNSYPLTFGSGTKLEIK
B8: clone 2.1 Fab CB_10 (clonal burst) (Fab, V domains shown)
VH: EVQLQESGPSLVKPSQTLSLTCSVTGDSITSGYWNWIRKFPGNKLEYMGYISYSGSTYYNPSLKSRISITRDTSKNQYYLQLNSVTTEDTATYYCGRDFDVWGAGTTVTVSS
VL: DIVMTQSQKFMSTSVGDRVSVTCKASQNVGTNVGWYQQKPGQSPKALIYSASYRYSGVPDRFTGSGSGTDFTLTISNVQSEDLAEYFCQQYNRYPLTFGSGTKLEIK

biological target: chicken IgY (chicken); test: BLI; Octet, SAX (streptavidin) biosensors; recombinant Fabs against IgY; KD from a kinetic 1:1 model, global fit over multiple concentrations (partial fits averaged for 3 low-affinity Fabs)

Q: For B1, which Kd is on record?
A: 6.76 nM

Q: What about the koff of the same binder?
A: 0.00149 s⁻¹

Q: What about the kon of the same binder?
A: 221000 M⁻¹ s⁻¹

Q: B2 was tested. Which Kd did it give?
A: 1.34 nM

Q: What about the koff of the same binder?
A: 0.000349 s⁻¹

Q: What about the kon of the same binder?
A: 261000 M⁻¹ s⁻¹

Q: With B3 as the binder, how does the Kd read?
A: 1.83 nM

Q: And the koff?
A: 0.00011 s⁻¹

Q: And the kon?
A: 59800 M⁻¹ s⁻¹

Q: How did the Kd turn out when B4 was run?
A: 2.84 nM

Q: What about the koff of the same binder?
A: 0.000359 s⁻¹

Q: What about the kon of the same binder?
A: 126000 M⁻¹ s⁻¹

Q: Which Kd does the source give for B5 here?
A: 4.21 nM

Q: What about the koff of the same binder?
A: 0.000383 s⁻¹

Q: What about the kon of the same binder?
A: 90900 M⁻¹ s⁻¹

Q: B6 was tested. Which Kd did it give?
A: 1.21 nM

Q: What about the koff of the same binder?
A: 0.000462 s⁻¹

Q: What about the kon of the same binder?
A: 381000 M⁻¹ s⁻¹

Q: How did the Kd turn out when B7 was run?
A: 54 nM

Q: And the koff?
A: 0.00767 s⁻¹

Q: What about the kon of the same binder?
A: 142000 M⁻¹ s⁻¹

Q: How did the Kd turn out when B8 was run?
A: 0.127 nM

Q: And the koff?
A: 3.73e-05 s⁻¹

Q: What about the kon of the same binder?
A: 294000 M⁻¹ s⁻¹
